Test results from US20240115706A1 (LG CHEM, published 2024).

T1: monkey GUCY2C-rCD4 fusion protein (Macaca fascicularis (crab-eating …, limits assumed))
T1 construct: Prepared by the same method as the human antigen; also called Cy-GUCY2C-rCD4; monkey GUCY2C recombinant antigen
T1 chain: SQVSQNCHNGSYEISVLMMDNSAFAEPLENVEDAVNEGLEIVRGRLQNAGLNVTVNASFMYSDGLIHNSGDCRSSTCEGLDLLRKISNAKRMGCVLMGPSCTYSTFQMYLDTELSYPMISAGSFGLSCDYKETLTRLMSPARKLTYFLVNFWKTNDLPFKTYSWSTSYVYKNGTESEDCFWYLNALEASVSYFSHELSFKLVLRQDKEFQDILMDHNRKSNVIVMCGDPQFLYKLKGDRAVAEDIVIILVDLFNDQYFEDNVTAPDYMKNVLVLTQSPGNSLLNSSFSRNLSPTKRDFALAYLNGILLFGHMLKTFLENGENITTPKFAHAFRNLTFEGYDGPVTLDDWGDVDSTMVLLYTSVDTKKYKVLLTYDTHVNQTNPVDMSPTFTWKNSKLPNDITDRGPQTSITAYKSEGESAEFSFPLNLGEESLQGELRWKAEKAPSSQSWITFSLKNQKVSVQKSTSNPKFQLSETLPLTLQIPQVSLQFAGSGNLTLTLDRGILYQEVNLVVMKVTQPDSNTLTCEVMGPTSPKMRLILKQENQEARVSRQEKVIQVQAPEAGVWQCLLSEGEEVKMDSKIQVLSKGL


Tests used:
[1] = molecular target: T2, human GUCY2C-rCD4 fusion protein (Homo sapiens (human); Rattus norvegicus, biotinylated (site not given)); experiment: SPR (Sierra SPR-32), scFv on protein G, antigen 800-12.5 nM, 25 C
T2 construct: GUCY2C conjugated/fused with CD4; also called Hu-GUCY2C-rCD4; human GUCY2C recombinant antigen
Description: Furthermore, the affinity to the GUCY2C antigen of the 18 kinds of scFvs produced in Example 1 was measured by SPR (Surface plasmon resonance) analysis.
SPR assay was performed with association time 2 min and dissociation time 10 min under the condition of 25 degrees of Celsius using MASS2 (Sierra SPR-32; Bruker). The data were analyzed with Software R3.

[2] = molecular target: T2, human GUCY2C-rCD4 fusion protein; experiment: ELISA (DELFIA), antigen on streptavidin plate, scFv culture solution, Eu-anti-tag Ab
Description: (§1) More specifically, GUCY2C-rCD4 fusion protein, in which the prepared human GUCY2C (SEQ ID NO: 112), monkey GUCY2C (SEQ ID NO: 114), and mouse GUCY2C (SEQ ID NO: 113) were fused, respectively, was bound to a place coated with streptavidin in a Nunc Maxisorp™96 well plate. After removing all the synthetic proteins not combined with washing buffer, the anti-GUCY2C scFV obtained in the culture solution was incubated in each well. After that, the affinity was measured by reading signals DELFIA enhanced using Eu-anti-tag Ab.

[3] = molecular target: T2, human GUCY2C-rCD4 fusion protein; experiment: ranking ELISA (DELFIA), 5 nM scFv on anti-FLAG, biotinylated antigen, streptavidin-Eu
Description: (§2) More specifically, after coating an anti-FLAG antibody in a MaxiSorb plate and binding by adding scFvs obtained previously, the remaining scFvs were removed by a washing process. Here, a biotinylated human-GUCY2C-rCD4 protein was incubated and combined, and then the affinity to the antigen was measured by reading signals by DELFIA enhancement with color development through streptavidin-Europlum.

[4] = molecular target: T2, human GUCY2C-rCD4 fusion protein; experiment: ranking ELISA (DELFIA), 50 nM scFv on anti-FLAG, biotinylated antigen, streptavidin-Eu
Description: as §2

[5] = molecular target: T1, monkey GUCY2C-rCD4 fusion protein; experiment: ELISA (DELFIA), antigen on streptavidin plate, scFv culture solution, Eu-anti-tag Ab
Description: as §1

[6] = molecular target: T3, GUCY2C on the cell surface (T84 colon carcinoma cells; HT29-GUCY2C cells) (human, UniProt P25092 24-1073); experiment: flow cytometry, scFv(-Fc) at 10 ug/mL on GUCY2C-positive T84 cells, detected with IgG-Fc-PE Ab (FL2-H)
T3 construct: whole, on cells; also called GUCY2C expressing T84 cells; HT29 GCC cells
Description: Using cells naturally expressing GUCY2C, whether 18 kinds of scFvs produced in Example 1 could actually detect GUCY2C expression on the cell surface was confirmed. For this, a GUCY2C positive cancer cell, T84 colon carcinoma cell (ATCC® CCL248™) was used.
After separating the two cell lines using trypsin-EDTA, they were placed in FACS buffer (1×PBS+2% BSA). 10 ug/mL of each of the 18 kinds of scFvs and positive control group, 5F9 scFv was cultured with T84 and T-47D cells on ice for 1 hour. The scFv combined to cells was detected using 5 ug/mL IgG-Fc-PE Ab (BioLegend; 409304). The cells were cultured with ToPro®3 (live/dead stain) and then red with a flow cytometer.

Row | Binder | Kd [1] | Binding ELISA signal [2] | Affinity Ranking ELISA (5 nM) signal [3] | Affinity Ranking ELISA (50 nM) signal [4] | Binding ELISA signal [5] | binding result [6]
1 | scFv A12 (scFv, also called 2433_01_G08) scFv: EVQLVQPGAEVKKPGSSVKVSCKASGGTLSSYAISWVRQAPGQGLEWMGRIIPILGITNYAQKFQGRVTITADKSTSTAYMELSSLRSEDTAVYFCARDQRPASMDVWGQGTLVTVSSGGGGSGGGGSGGGASQSELTQPASVSGSPGQSITISCTGTSSDVGGYIYVSWYQQHPGKVPKLMIHDVSHRPSGVSNRFSGSRSGNTASLTISGLQAEDEADYFCSSYTSSNNYVFGTGTKVTVL | 297 nM | 38200 | 28100 | 151000 | – | –
2 | scFv A04 (scFv, also called 2427_01_B02) scFv: EVQLVQPGAEVKKPGSSVKVSCKASGGTLSSYAISWVRQAPGQGLEWMGRIIPILGITNYAQKFQGRVTITADKSTSTAYMELSSLRSEDTAVYFCARDQRPASMDVWGQGTLVTVSSGGGGSGGGGSGGGASQSELTQPASVSGSPGQSITISCTGTSSDVGGYIYVSWYQQHPGKVPKLMIHDVSHRPSGVSNRFSGSRSGNTASLTISGLQAEDEADYFCSSYTSSNNYYFGTGTKVTVL | 311 nM | 51000 | 30400 | 173000 | – | –
3 | scFv A02 (scFv, also called 2427_01_A08) scFv: EVQLVQPGAEVKKPGSSVKVSCKASGGTLSSYAISWVRQAPGQGLEWMGRIIPILGITNYAQKFQGRVTITADKSTSTAYMELSSLRSEDTAVYFCARDQRPASMDVWGQGTLVTVSSGGGGSGGGGSGGGASQSELTQPASVSGSPGQSITISCTGTSSDVGGYIYVSWYQQHPGKVPKLMIHDVSHRPSGVSNRFSGSRSGNTASLTISGLQAEDEADYFCSSYAGSNNYVFGTGTKVTVL | 743 nM | 48300 | 33400 | 168000 | – | –
4 | scFv A05 (scFv, also called 2427_01_B07) scFv: QVQLVQSGAEVKKPGSSVKVSCKASGGTFSSYTITWVRQAPGQGLEWMGRIIPVLGIANYAQKFQGRVTITADKSTSTAYMELSSLRSEDTAVYYCARDYSSSWNSMDVWGQGTLVTVSSGGGGSGGGGSGGGASQSGLTQPRSVSGSPGQSVTISCTGTSSDVGGYNYVSWYQQHPGKAPKLMIYDVSKRPSGVPDRFSGSKSGNTASLTVSGLHAEDEADYYCSSYAGSNNFVFGTGTKVTVL | 4390 nM | 43000 | 18300 | 131000 | – | –
5 | scFv A06 (scFv, also called 2427_01_C01) scFv: QVQLVQSGAEVKKPGSSVKVSCKASGGTFGSYTISWVRQAPGQGLEWMGRIIPILGIANYAQKFQGRVTITADKSTSTAYMELSSLRSEDTAVYYCARDYSSSWNSMDVWGQGTLVTVSSGGGGSGGGGSGGGASQSGLTQPRSVSGSPGQSVTISCTGTSSDVGAYNYVSWYQQHPGKAPKLMIYEVSKRPSGVPDRFSASKSGNTASLTVSGLQAEDEADYYCSSYAGSNNWVFGGGTKLTVL | 716 nM | 63100 | 35100 | 185000 | – | –
6 | scFv B07 (scFv, also called 2436_02_F10) scFv: EVQLVQSGAEVKRPGSSVKVSCKASGYTFTSYYMHWVRQAPGQGLEWMGIINPSGGSTSYAQKFQGRVTMTRDTSTSTVYMELSSLRSEDTAVYYCAAGTYSSGWTIDYWGQGTTVTVSSGGGGSGGGGSGGGASDIVMTQSPLSLPVTLGQPASISCRSSQSLVYTDGNTYLNWFQQRPGQSPRRLIYKVSNRDSGVPDRFSGSGSGTDFTLKISRVEAEDVGIYYCMHSKQWPPTFGGGTKVEIK | 293 nM | 68600 | 25900 | 139000 | – | –
7 | scFv C02 (scFv, also called 2437_02_H08) scFv: QVQLVQSGAEVKKPGSSVKVSCKASGGTFSSYTISWVRQAPGQGLEWMGRIIPILGIANYAQKFQGRVTITADKSTSTAYMELSSLRSEDTAVYYCARDRSYNWLDPWGRGTLVTVSSGGGGSGGGGSGGGASQSALTQPVSVSGSPGQSITISCTGTISDVGDYNYVSWYQQHPGKAPKLMIYDVNNRPSGVSNRFSGSKSGNTASLTISGLQAEDEADYYCSSYTSSSTLVFGGGTKLTVL | 1480 nM | 49500 | 11000 | 86300 | 32300 | –

The remaining binders from weak to strong by Kd [1], led by results:

Row | Kd [1] | Binding ELISA signal [2] | Affinity Ranking ELISA (5 nM) signal [3] | Affinity Ranking ELISA (50 nM) signal [4] | Binding ELISA signal [5] | binding result [6] | Binder
8 | 2860 nM | 34400 | 12500 | 105000 | – | – | scFv B10 (scFv, also called 2436_02_G01) scFv: EVQLVQSGAEVKKPGSSVKVSCKASGGTFSSYAISWVRQAPGQGLEWMGGIIPIFGTANYAQKFQGRVTITADKSTSTAYMELSSLRSEDTAVYYCARGHYYYMDVWGQGTTVTVSSGGGGSGGGGSGGGASDIVMTQSPATLSVSPGEGATLSCRASQSVSSNLAWYQQKPGRAPRLLIYGASTRATGIPARFSGSGSGTEFTLTISSLQSEDFAVYYCQQYNNWPTFGGGTKLEIK
9 | 1150 nM | 37500 | 3090 | 29500 | 21600 | – | scFv C01 (scFv, also called 2437_02_H05) scFv: QMQLVQSGAEVKKPGSSVKVSCKASGGTFSSYAISWVRQAPGQGLEWMGGIIPIFGTANYAQKFQGRVTITADESTSTAYMELSSLRSEDTAVYYCVRGYSSIYYYYGMDVWGQGTMVTVSSGGGGSGGGGSGGGASQSGLTQPRSVSGSPGQSVTISCTGTSSDVGGYNYVSWYQQHPGKAPKLMIYDVSKRPSGVSDRFSGSKSGNTASLTISGLQAEDEADYYCGSYTSDGTLVFGGGTKLTVL
10 | 219 nM | 59200 | 36000 | 199000 | – | – | scFv A03 (scFv, also called 2427_01_A12) scFv: QVQLVQSGAEVKKPGSSVKVSCKASGGTFSSYTISWVRQAPGQELEWMGRIIPILGIANYAQKFQGRVTITADKSTSTAYMELSSLRSEDTAVYYCARDYSSSWNSMDVWGQGTLVTVSSGGGGSGGGGSGGGASQSGLTQPPSASGSPGQSVTISCTGTSSDIGYYHYVSWYQQHPGKAPKLMIYEDSKRPSGISNRFSGSKSGTTASLTVSGLQAEDEAHYYCSSFTSRSTWVFGGGTQLTVL
11 | 48 nM | 55400 | 81200 | 243000 | 37200 | binds | scFv A10 (scFv, also called 2432_01_D08; D08) scFv: EVQLVQSGAEVKKPGSSVKVSCKASGGTFSSYAISWVRQAPGQGLEWMGGIIPIFGTANYAQKFQGRVTITADESTSTAYMELSSLRSEDTAVYYCARTRYIWGSYRAYGMDVWGQGTMVTVSSGGGGSGGGGSGGGASDIQMTQSPSSMSASVGDRVTITCRASQSISSHLNWYQQLPGNAPTLLIYYASNLQSGVPSRFSGSGSGTDFTLTISSLQPDDFATYYCQQSISLPYTFGQGTKVEIK
